Where two headings read alike, the source gives them in different places.
Legend:
Assay in all cases: FACS binding, CHO-K1 cells
human PD-L1 [1] = molecular target: T1, human PD-L1 (human, UniProt Q9NZQ7 19-290)
human PD-L1 [2] = molecular target: T1, human PD-L1; remark: listed apart in the source
human PD-L1 [3] = molecular target: T1, human PD-L1; remark: listed apart in the source

T1 sequence (Q9NZQ7 19-290): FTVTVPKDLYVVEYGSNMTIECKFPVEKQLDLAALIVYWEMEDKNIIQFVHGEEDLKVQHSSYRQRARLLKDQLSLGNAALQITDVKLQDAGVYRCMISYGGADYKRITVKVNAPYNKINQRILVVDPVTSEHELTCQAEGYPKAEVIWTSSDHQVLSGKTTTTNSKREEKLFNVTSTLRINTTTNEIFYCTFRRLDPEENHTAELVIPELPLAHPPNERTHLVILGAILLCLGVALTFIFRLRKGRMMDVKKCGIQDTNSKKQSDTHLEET

EC50 (human PD-L1 [1]): 340 pM
EC50 (human PD-L1 [2]): 215 pM
EC50 (human PD-L1 [3]): 262 pM
B1: CLDN18L-E-pdl1a (bispecific antibody)
heavy: not shown
light: DIVMTQSPLSLPVTPGEPASISCKSSQTLLNSGNQKNYLTWYLQKPGQSPQLLIYWASTGESGVPDRFSGSGSGTDFTLKISRVEAEDVGVYYCQNAYFYPFTFGGGTKVEIKRTVAAPSVFIFPPSDEQLKSGTASVVCLLNNFYPREAKVQWKVDNALQSGNSQESVTEQDSKDSTYSLSSTLTLSKADYEKHKVYACEVTHQGLSSPVTKSFNRGECEPKSSDKTHTSPPSPEVQLVESGGGLVQPGGSLRLSCAASGRTFVTYGMGWFRQAPGKGREFVSAISWSGSMTSYGDSVKGRFTISRDNAKNTLYLQMNSLRPEDTAVYYCAAALGAVVYTTREPYTYWGQGTLVTVSS

Reference: US20230125301A1 (published 2023)
